According to paper PMC7884259 (Journal of medicinal chemistry, 2020):
Where a chain is given by its changes, count along the chain named. Where no end group is shown, it is not given here.

T1: ATAD2B bromodomain (residues 953–1085) (human, UniProt Q9ULI0 953-1085)
T1 sequence (looked up): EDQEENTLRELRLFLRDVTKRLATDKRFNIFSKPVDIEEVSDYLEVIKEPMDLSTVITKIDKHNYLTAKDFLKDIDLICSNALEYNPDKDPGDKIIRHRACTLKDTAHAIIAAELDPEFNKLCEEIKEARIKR

T2: ATAD2B bromodomain N1038A (human, UniProt Q9ULI0 953-1085, N1038A)
T2 sequence (looked up): T1 sequence (looked up) with N86A


Assays:
[1] = biological target: T1, ATAD2B bromodomain (residues 953–1085); assay: ITC
[2] = biological target: T2, ATAD2B bromodomain N1038A; assay: ITC

Binder	Kd [1]	Kd [2]
SGRGK(Ac)GGKGL-NH2 [H4K5ac (res 1–10)]	48 µM	
SGRGKGGK(Ac)GL-NH2 [H4K8ac (res 1–10)]	1160 µM	

Now those with a lower Kd [1], led by results:

Kd [1]	Kd [2]	Binder
42.5 µM		SGRGK(Ac)QGGKARA-NH2 [H2AK5ac (res 1–12)]
28.1 µM	623 µM	SGRGK(Ac)GGK(Ac)GL-NH2 [H4K5acK8ac (res 1–10)]
